The data set can be described thus: yeast display, Sf9 membrane polyspecificity reagent, FACS + sequencing; frameworks hold sequencing errors. In short, it runs like this: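 Nanobodies from a synthetic yeast display library (Saccharomyces cerevisiae BJ5465), induced 36–48 hours with galactose, were stained 1 hour at 4 °C with 10% biotinylated, detergent-solubilized Sf9 membrane reagent, enriched on streptavidin microbeads, then FACS-sorted. Anti-HA (expression) and streptavidin (reagent binding) fluorescence set low and high (top ~1%) gates. Polyreactivity labels come from the gate of origin. Genes were colony-PCR amplified, MiSeq 2 × 250 sequenced and filtered by CDR length.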
Regarding “QVQLVESGGGLVQAGGSIRLSCAASGSTFDPYAMGWYRQAPGKEREVVAAISGSRGGSTNYADSVKGRFTISRDNAKNTVYLQMNSLKQEDTAVFYCNARFSYRNGHYYRYYYGGQGTQVTVSS”, the “polyreactivity (PSR sort gate)” value is on record as “high polyreactivity”.

As for “QVQLVESGGGLVQAGGSIRLSCAASGSTFDYYAMGWYRQAPGKDRELVAAITTSGSSTFYADSVKGRFTIARDNAKNTVYVQMNSLKPEDTADYYCAAVFRWARQRWLDYWGQGTQVTVSS”, the “polyreactivity (PSR sort gate)” value was “high polyreactivity”. Consider “QVQLVESGGGLVQAGGSIRLSCAASGSTFLIKAMGWYRQAPGKERELDASINRRGTSTFYADSVKARFTISRDNAKNTVYLQMNSLKPDDTAVYYCNAYPGAAIRSTGRYDYWGQGTQVTVSS”, for which the “polyreactivity (PSR sort gate)” value is listed as “low polyreactivity”. As to “QVQLVESGGGLVQAGGSIRLSCAASGSTFRGYSMGWYRQAPGKERELVAAISSRGARTHYADSVKGRFTISRDNSKNTVYLQMNCLKPEDTAVYDCAKVWVRSGRRKMDYWGQGTQVTVSS”, the “polyreactivity (PSR sort gate)” value is listed as “low polyreactivity”. As to “QVQLVESGGGLVQAGGSIRLSCAASGSTFVWNAMGWYRQAPGKERELVAAISSSGGSTYYADSVKGRFTISRDNAKNTVYLQMNSLKPEDTAVYYCAAYYGRRRFGYWGQGTQVTVSS”, the “polyreactivity (PSR sort gate)” value is “high polyreactivity”. In the case of “QVQLVESGGGLVQAGGSIRLSCAASGYILGRYAMGWYRQAPGKERELVAAITSGGSTYYADSVKGRFTISRDNAKNSVSLQMNSLKPEDTAVYYCAAYTRYWSYGYWGQGTQVTVSS” it was “high polyreactivity”; in that of “QVQLVESGGGLVQAGGSIRLSCAASVSIQTRNAMGWYRQAPGKERELVAAISRGGSTTYADSVKGRFTISRDNAKNTVYLQMNSLKPEDTAVYYCAASDYYVLSRRTRMDYWGQGTQVTVAS”, “high polyreactivity”. Regarding “QVQLVESGGGLVQAGGSIRLSCADSGIIFQANAMGWYRQAPRKERELVAGISRGSSTNYADSVKGRFTISLDNAKNTVYLQMNSLKPEDTAVYYCSAGFYYRPFYGSSHSYGYWGQGTQVTVSS”, the “polyreactivity (PSR sort gate)” value is given as “low polyreactivity”. As for “QVQLVESGGGLVQAGGSIRLSCASSGSTFTIYAMGWYRPAPGKERELVAAISGTGGTKYADSVKGRFTISRDNAKNTVYLQMNSLKPEDTAVYYCAVGLVPLRDGWHFYYEFDSWGQGTQVTVSS”, the entry is “low polyreactivity”; as for “QVQLVESGGGLVQAGGSIRLTCAASGSTFGKYAMGWYRQAPGKERELVARIDSGDGTYYADSLKGRFTISRDNAKNTVYLKMNSLKAEDTAVYYCAAGYGARRLTYFWPQYARYDYWGQGTQVTVSS”, “high polyreactivity”; as for “QVQLVESGGGLVQAGGSLCLSCAASGFIFEFYTMGWYRQAPGKERELVAAITNGDSTNYADSVKGRFTISRDNAKNTVYLQMNSLKPEDTAVYYCAADGKGETEYSSHPGWAFDYWGQGTQVTVSS”, “low polyreactivity”. For the sequence “QVQLVESGGGLVQAGGSLCLSGAASGITFRFYAMGWYRQAPGKERELVAAISWSGGRTYYADSVKWRFTISRDNAKNTVYLQMNSLKPEDTAVYYCAAVASSVPGYDYWGQGTQVTVSS”, the “polyreactivity (PSR sort gate)” value is “low polyreactivity”.

As to “QVQLVESGGGLVQAGGSLGLNCAASGFTFRVNAMGLYSQAPGKEREFVAAITASGGSTYYADSVKGRFTISRDNAKNTVYLLMNSLKPVDTAVYYCAADWWIYWYPDTGDYWGQRTQVTVSS”, the “polyreactivity (PSR sort gate)” value was “high polyreactivity”. As for “QVQLVESGGGLVQAGGSLGLSCAASGRTIDYYALGWYRQAPGKERELVAAITWDGSTYYADSVKGRFTISRDNAKITVYLQMISLKPEVTAVYYCAADFYWYLDLYDFWGQGTQVTVSS”, the entry is “high polyreactivity”; as for “QVQLVESGGGLVQAGGSLGLSCAASGSTFGFYTMGWYRQAPGKERELVATISYSGGDTYYEDSVKGRFTISRDNAKNTVYFQMNSLKPEYTAVYYCAADLGDYVTTYSWLDSWGQGTQVTVSS”, “low polyreactivity”. In the case of “QVQLVESGGGLVQAGGSLGLTCAASGFIFLDYTMVWYRQAPGIERELVATINASDGSTYYADSVKGRFTISRDNAKKTVYLQMNSLKPEDTAVYYCNTKVISRTSERRGNGFTRYDYWGQGTQVTVSS” it was “low polyreactivity”; in that of “QVQLVESGGGLVQAGGSLLLICAASGSTFPYNAMGWYRQAPGKQRELVASITSRGGSTYYADSVKGRFTISRDNAKNTVYLQMNSLKPQDTAVYYCATPGDTYGWTRRRYYYWGQGTQVTVSS”, “high polyreactivity”. “QVQLVESGGGLVQAGGSLLLSCAASGFIFVSYAMGWYRQAPGKERELVAAIDRIGGITYYADSVKGRFTISRDNAKNTVYLQMNSLKREDTAVYYCAAAARFATVRVGREYYWGQGTQVTVSS”: the “polyreactivity (PSR sort gate)” value is “low polyreactivity”. As for “QVQLVESGGGLVQAGGSLLLSCAASGFILYSYAMGWYRQAPGTEREFVSVISRGGGRTYYADSVKGRFTISRDNAKNTVYLQMNCLKPDDTAVYYCAATPSNVYAYEYWGQGTQVTVSS”, the entry is “low polyreactivity”; as for “QVQLVESGGGLVQAGGSLLLSCAASGFTFLWYDMGWYRQSPGKERELVAAIDASDGSTYYADSVKGRFTISRDNAKNTVYLQMNSLKPEDTAVYYCAVAAGYFGKWTYYYWGQGTQVTVSS”, “high polyreactivity”. As for “QVQLVESGGGLVQAGGSLLLSCAASGIIFGTNALGWYRQAPGKERELVAAITWSGGNTTYADSVKGRFTISRDNAKNTVYLQMNSLKPEDTAVYYCAADFTRAGDYDYWGQGTQVTVSS”, the entry is “low polyreactivity”.

On to “QVQLVESGGGLVQAGGSLLLSCAASGLIFSGYAMGWYRQAPGKERELVAAISRTVGTTYYADSVKGRFTISRDNGKNPVYLQMNSLKPEDTAVYYCAARGRATLYDYWGQGTQVTVSS”, for which the “polyreactivity (PSR sort gate)” value is listed as “high polyreactivity”. Take “QVQLVESGGGLVQAGGSLLLSCAASGLIFYPYAMGWYRQAPGKEREFVAAITWSGGSTRYADSVKGRFTISRDNAKNTVYLQMNSLKPEDTAVYYCAARYIWWYDYTYTGLDYWGQGTQVTVSS”: the “polyreactivity (PSR sort gate)” value is listed as “high polyreactivity”. “QVQLVESGGGLVQAGGSLLLSCAASGNTFYKYTMGWYRQAPGKERELVAVISSSSGSTYYADSVKGRFTISRDNAKNTVYLQMNSLKPEYTAVYYCKKRGWWDLRHYYWGQGTQVTVSS”: the “polyreactivity (PSR sort gate)” value is “low polyreactivity”. As for “QVQLVESGGGLVQAGGSLLLSCAASGRIFDVYALGWYRQAPGTEREWVAAITWRVGSTYYADSVKGRFTISRDTAKNTVYLQMNSLKPEDTAVYYCAVDSFLVYSAVRPYDYWGQGTQVTVSS”, the entry is “low polyreactivity”; as for “QVQLVESGGGLVQAGGSLLLSCAASGRIFWHNTMGWYRQAPGKERELVAGISVSGGSTYYADSVKGRFTISRDNAMNTVYLKMNSLKPEDTAVYYCAARKVTSWKAHFRFDYWGQGTQVTVSS”, “low polyreactivity”; as for “QVQLVESGGGLVQAGGSLLLSCAASGRTFSRNAMGWYRQAPGKERELVASIRSGGTTNYADSVKGRFTISRDNAKNTVYLQMNSLKPEVTAVYYCNAGDTFLDPCSQYLFDYWGQGTLVTVSS”, “low polyreactivity”. In the case of “QVQLVESGGGLVQAGGSLLLSCAASGRTFYVYAMGWYRQAPGKERELVAAITSGGRTYYADSVKGRFTISRDNAKNTVYLQMNRLKPEDTAVYYCNARRTSRSYSFNYWGQGTQVTVSS” it was “high polyreactivity”; in that of “QVQLVESGGGLVQAGGSLLLSCAASGSIFFYAMGSYRQAPGKERELVADITYTGGSKYADSVKGRFTISRDNAKNTVYLQMNSLKPEDTAVYYCAKLDGGLFDYWGQGTQVTVSS”, “low polyreactivity”; in that of “QVQLVESGGGLVQAGGSLLLSCAASGSIFSIYAMGWYRQAPGKERELVAAISSSGRTYYADSVKGRFTISRDNAKNTVYLQMNSLKPEDTAVYSCNRVREGKHYYYWGQGTQVTVSS”, “high polyreactivity”.

As for “QVQLVESGGGLVQAGGSLLLSCAASGSIFVRNTMGWYRQAPGKERELVAAITSSGGTTYYADSVKGRFTISRDNAKNTVYLQMNSLKPEDTAVYYCAARYGYWGQGTQVTVSS”, the “polyreactivity (PSR sort gate)” value is on record as “high polyreactivity”. “QVQLVESGGGLVQAGGSLLLSCAASGSIYVNNAMGWYRQAPGKERELVAAISRSGGSTYYADSVKGRFTISRDSAKKTVYLQMNSLKPEDTAVYYCATVHRSSTPPEFNYSGQGTQVTVSS”: the “polyreactivity (PSR sort gate)” value was “high polyreactivity”. On to “QVQLVESGGGLVQAGGSLLLSCAASGSTFPHYTMGWYSQAPGKEREWVAVISRSGRTYYADSVKGRFTISRDNAKNTVYLQMNSLKPEDTAVYYCAVLVGRLVWSYNHWGQGTQGTVSS”, for which the “polyreactivity (PSR sort gate)” value is “high polyreactivity”.

Consider “QVQLVESGGGLVQAGGSLLLSCAASGSTFSYYGMGWYRQAPVKERELVAAIDYSGDSTYYADSVKGRFTISRDNSKNTVFLQMNSLKPEDTAVYYCAADDYPWNRYEYWGQGTQVTVSS”, for which the “polyreactivity (PSR sort gate)” value is recorded as “low polyreactivity”. As for “QVQLVESGGGLVQAGGSLLLSSAASGIIFNQYAMGWYRQAPGKERELVATISSGGARTYYADSVKWRFTISRDNAKNTVYLQMNSRKPEDTAVYFCNRRVPYSFYSRGYYYWGQGTQVTVSS”, the entry is “high polyreactivity”. As for “QVQLVESGGGLVQAGGSLPLSCAASGGTFYKYAMGWYRQAPGKERELVARISRGGSTYYADSVKGRFTISRDNAKNTVYLQMTSLKPEDTAVYYCAKLWYAVWPIVVQYNYWGQGTQVNVSS”, the entry is “high polyreactivity”. As for “QVQLVESGGGLVQAGGSLPLSCAASGRIFVVYAMGWYRQAPGKERDLVAGISWTDGRTYYADSVKGRFTISRDNAKNTVYLLMNSLKPEDTAVYYCNKARTSQYHHTYWRTYGYWGQGTQVTLSS”, the entry is “low polyreactivity”. For the sequence “QVQLVESGGGLVQAGGSLPLSCAASGRTFGSYVMRWYRQAPGKERELVATISRRGGTTYYADSVKGRFTISRDNAKNTVYLQMNSLKPEDTAVYYCAAKYFATRYDYWGQGTQVTVSS”, the “polyreactivity (PSR sort gate)” value is on record as “high polyreactivity”. As for “QVQLVESGGGLVQAGGSLPLSCAASGRTIYRYAMGSYRQAPGKERELDAAIRRSGDSTYYADSVKGRFTISRDIAKKTVYLQMNSLKPEDTAVYYCNAVASGRTYDYWGQGTQVTVSS”, the entry is “high polyreactivity”; as for “QVQLVESGGGLVQAGGSLPLSCAASGSIFFFNAMGWYRQATGKEREFVAAITSSSGRTYYADSVKGRFTISRDNANNTVYLQMNSLKPEDSAVYFCAAQVPEDTETVDYWGQGTQVTVSS”, “low polyreactivity”.

For the origin of these results see the nanobody polyreactivity screen of Harvey et al. (2022).
